B1: T14.22 (designed binder)
chain: VSDVPRDLEVVAATPSSRLISWRPGRTYSRYYRITYGETGGNSPVQEFTVPPWANTATISGLKPGVDYTIAVYAVTFPTGYPLTEMPISINYRT
B2: M12.09 (designed binder)
chain: VSDVPRDLEVVAATPTSRLISWRPGRAYSRYFRITYGETGGNSPVQEFTVPPWANTATISGLKPGVDYTIAVYAVTFPPRYPLTEMPISINYRA
B3: M12.14 (designed binder)
chain: VSDVPRDLKVVAATPTSRLISWTHDNVPARYYRITYGETGGNSPVQELTVPPWASIATISGLKPGVDYTITVYAVTLYTGNHRPEHPISINYRT
B4: M12.12 (designed binder)
chain: VSDVPSDLEVVAATPTSLLISWEQSPTYGRYYRITYGETGGNSPVQEFTVPGSKSTATISGRKPGADYTITVYAVTIEKDRIPLFGPISISYRT
B5: T14.20 (designed binder)
chain: VSDVPRDLEVVAATPTSRLISWRNIYPIARYYRITYGETGGNSPVQEFTVPPWASIATISGLKPGADYTITVYAVTDKSDTYKYDDPISINYRT
B6: M12.16 (designed binder)
chain: VSDVPRDLEVVAATPTSRLISWRPGRTYSRYYRITYGEAGGNSPVQEFTVPPWASIATISGLKPGVDYTITVYAVTDKSGTYRYDDPISINYRT
B7: M12.19 (designed binder)
chain: VSDVPRDLEVVAATPTGLLISWRNNQYTPRHYGITYGETGGKSPVQEFTVPELNPTATISRLKPGVDYTITVYAVTQNGTPRVIYGPISINYRT
B8: M12.08 (designed binder)
chain: VSDVPRDLEVVAATPTSLLNVPIIRYYRITYGETGGNSPVQEFTVPAPKAIATTSGLKPGVDYTITVYGVTSHRNHFHVETPISINYQA
notes: BC loop cell holds only II
B9: T14.21 (designed binder)
chain: VSDVPRDLEVVAATPTSRLISWRPGRTYSRYYRITYGETGGNSPVQEFTVPPWANTATISGLKPGVDYTITAYAVTYTHSTPMQDEPISINYRT
B10: T14.02 (designed binder)
chain: VSDVPRDLEVVVATPTSQLISWMTPHNHVRYYGITYGETGGNSPVQESTVPTGNATATISGLKPGVDYTITVYAVTPHHGHFDLEPPISINYRT
B11: M12.04 (designed binder)
chain: VSDVPGDLEVVAATPTSLLIGWSMTPNWPRYYRIAYGETGGDSPVQEFTVPPWASIAIIGGLKPGVDYTITVYAVTHRDTPISINYRT
notes: FG loop cell holds only HRDT
B12: M12.22 (designed binder)
chain: VSDVPRDLRVVAATPTSRLISWRPASNPARYYRITYGETGGNSPVQEFTVPPWASVATIGGLKPGVDYTVTVYAVTAQTGHRLHDKPISINYRT
B13: M12.24 (designed binder)
chain: VSDVPRDLEVVAATPTSRLISWNRSGLQSGYYRITYGETGGNSPVQEFTVPPWASIATISGLKPGVDYTITVYAVTPNVGRLDTRYPISIDCRT
B14: T10.15 (designed binder)
chain: VSDVPRDLEVVAATPTSLLISWHTERSFPRYYRITYGETGGNSPVQEFTVPPWGSIATISGLKPGVDYTITVYAVTEHYRDTGTGHPIPINYRT

The target in the assay is T1, tumor necrosis factor-α (TNF-α) (human, UniProt P01375 77-233, biotinylated with NHS-LC-LC-Biotin in the Kd and fluorescence assays; coupled to Epoxy-Activated Sepharose 6B in the column assays).
T1 construct: Bought from Pepro Tech; also called biotin-TNF-α; biotinylated TNF-α
T1 sequence (P01375 77-233 limits assumed): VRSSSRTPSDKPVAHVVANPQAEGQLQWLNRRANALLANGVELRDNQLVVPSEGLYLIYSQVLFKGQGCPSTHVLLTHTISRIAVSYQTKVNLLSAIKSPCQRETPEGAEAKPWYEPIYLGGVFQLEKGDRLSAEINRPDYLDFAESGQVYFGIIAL
As to the kind of experiment: 35S free protein + biotin-TNF-α, capture membrane, equilibrium fit. On the procedure:
Subsequently, each sample was loaded on a pre-soaked, SAM2R Biotin Capture Membrane (Promega, Madison, Wis.) using a 96 well, Easy-Titer™ ELIFA system (Pierce). Under vacuum, each spot was washed with 200 μL of HBS pH 7.4, 1% BSA, 0.05% Triton; next the entire membrane was rinsed in the buffer and air-dried. The membrane was exposed with a Storage Phosphor Screen (Molecular Dynamics, Sunnyvale, Calif.) overnight, and the intensities of the resulting individual spots were quantified using a STORM 860 phosphoimager with the ImageQuaNT densitometry program (Molecular Dynamics). The Kd of the binding was determined by fitting the equilibrium equation to the resulting binding curve (KaleidaGraph, Synergy Software); the error of the experiment was estimated from 2-4 independent experiments.
With B1, the dissociation constant Kd is 0.4 nM. B2: the Kd was found to be 0.4 nM.

Turning to B3, the Kd was determined as 1.7 nM.

In the case of B4, the Kd was found to be 0.2 nM. On to B5, for which the Kd worked out at 0.11 nM. Take B6: the Kd stood at 0.3 nM.

As to B7, the Kd amounted to 0.6 nM. The value for B8 was 0.6 nM; that for B9 was 7 nM; that for B10 was 0.5 nM. In the case of B11, the Kd came to 0.02 nM. Regarding B12, the equilibrium dissociation constant (Kd) amounted to 0.7 nM.

Consider B13, for which the equilibrium dissociation constant (Kd) is 1.3 nM. Turning to B14, the Kd came out at 4 nM.

Usually Kd stands for a measure of binding affinity in units of concentration.

Source of the values: patent US20050038229A1 (published 2005).
